Legend:
Assay in all cases: two-hybrid library CCmax;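 further: natural log of median RNA to DNA barcode read ratio; higher means stronger binding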
4H390-AA = target: T1, 4H390-AA
T1 chain: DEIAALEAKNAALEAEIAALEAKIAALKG

4H3940-AA = target: T2, 4H3940-AA; conditions: mean of both orientations
T2 chain: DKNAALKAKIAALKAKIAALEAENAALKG

4H775-AA = target: T3, 4H775-AA; conditions: mean of both orientations
T3 chain: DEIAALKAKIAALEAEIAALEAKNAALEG

4H816-AA = target: T4, 4H816-AA; conditions: mean of both orientations
T4 chain: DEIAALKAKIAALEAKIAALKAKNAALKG

4H87-AA = target: T5, 4H87-AA; conditions: mean of both orientations
T5 chain: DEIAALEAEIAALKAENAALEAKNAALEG

4H510-AA = target: T6, 4H510-AA; conditions: mean of both orientations
T6 chain: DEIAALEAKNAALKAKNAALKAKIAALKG

APC6108-AA = target: T7, APC6108-AA; conditions: mean of both orientations
T7 chain: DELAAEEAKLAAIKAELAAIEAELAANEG

APC8191-AA = target: T8, APC8191-AA; conditions: mean of both orientations
T8 chain: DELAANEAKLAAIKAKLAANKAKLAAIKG

APC8910-AA = target: T9, APC8910-AA; conditions: mean of both orientations
T9 chain: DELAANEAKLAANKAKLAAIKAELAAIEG

APC9319-AA = target: T10, APC9319-AA; conditions: mean of both orientations
T10 chain: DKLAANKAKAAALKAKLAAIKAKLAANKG

APC5383-AA = target: T11, APC5383-AA; conditions: mean of both orientations
T11 chain: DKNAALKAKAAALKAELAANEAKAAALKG

APC9096-AA = target: T12, APC9096-AA; conditions: mean of both orientations
T12 chain: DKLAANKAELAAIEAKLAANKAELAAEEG

APC7099-AA = target: T13, APC7099-AA; conditions: mean of both orientations
T13 chain: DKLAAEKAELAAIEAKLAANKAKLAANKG

APC4436-AA = target: T14, APC4436-AA
T14 chain: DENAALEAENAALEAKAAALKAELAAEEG

4H2438-AA = target: T15, 4H2438-AA
T15 chain: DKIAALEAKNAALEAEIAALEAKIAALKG

4H3130-AA = target: T16, 4H3130-AA; conditions: mean of both orientations
T16 chain: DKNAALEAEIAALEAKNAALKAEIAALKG

4H3381-AA = target: T17, 4H3381-AA; conditions: mean of both orientations
T17 chain: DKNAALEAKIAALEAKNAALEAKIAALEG

4H3009-AA = target: T18, 4H3009-AA; conditions: mean of both orientations
T18 chain: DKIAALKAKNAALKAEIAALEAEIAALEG

4H536-AA = target: T19, 4H536-AA; conditions: mean of both orientations
T19 chain: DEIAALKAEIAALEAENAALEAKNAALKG

4H930-AA = target: T20, 4H930-AA; conditions: mean of both orientations
T20 chain: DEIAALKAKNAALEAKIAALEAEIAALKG

4H2649-AA = target: T21, 4H2649-AA; conditions: mean of both orientations
T21 chain: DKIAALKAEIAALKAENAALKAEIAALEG

4H3590-AA = target: T22, 4H3590-AA; conditions: mean of both orientations
T22 chain: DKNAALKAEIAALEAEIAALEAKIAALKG

4H2865-AA = target: T23, 4H2865-AA; conditions: mean of both orientations
T23 chain: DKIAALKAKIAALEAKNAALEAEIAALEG

4H3865-AA = target: T24, 4H3865-AA; conditions: mean of both orientations
T24 chain: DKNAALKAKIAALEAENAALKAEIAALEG

4H2698-AA = target: T25, 4H2698-AA; conditions: mean of both orientations
T25 chain: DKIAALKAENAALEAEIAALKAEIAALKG

4H3410-AA = target: T26, 4H3410-AA; conditions: mean of both orientations
T26 chain: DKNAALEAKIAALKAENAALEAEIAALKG

4H3120-AA = target: T27, 4H3120-AA; conditions: mean of both orientations
T27 chain: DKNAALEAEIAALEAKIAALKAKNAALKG

4H310-AA = target: T28, 4H310-AA; conditions: mean of both orientations
T28 chain: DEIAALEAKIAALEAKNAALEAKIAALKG

4H3395-AA = target: T29, 4H3395-AA; conditions: mean of both orientations
T29 chain: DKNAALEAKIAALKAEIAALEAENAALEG

4H2725-AA = target: T30, 4H2725-AA; conditions: mean of both orientations
T30 chain: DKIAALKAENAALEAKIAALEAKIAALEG

4H710-AA = target: T31, 4H710-AA
T31 chain: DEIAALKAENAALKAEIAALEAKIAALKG

4H891-AA = target: T32, 4H891-AA; conditions: mean of both orientations
T32 chain: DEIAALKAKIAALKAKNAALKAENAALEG

4H629-AA = target: T33, 4H629-AA; conditions: mean of both orientations
T33 chain: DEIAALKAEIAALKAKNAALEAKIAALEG

4H3165-AA = target: T34, 4H3165-AA; conditions: mean of both orientations
T34 chain: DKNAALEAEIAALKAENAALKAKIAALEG

4H797-AA = target: T35, 4H797-AA; conditions: mean of both orientations
T35 chain: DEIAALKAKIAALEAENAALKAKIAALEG

4H94-AA = target: T36, 4H94-AA; conditions: mean of both orientations
T36 chain: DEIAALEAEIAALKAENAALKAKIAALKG

4H2473-AA = target: T37, 4H2473-AA; conditions: mean of both orientations
T37 chain: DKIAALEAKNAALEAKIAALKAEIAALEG

4H485-AA = target: T38, 4H485-AA; conditions: mean of both orientations
T38 chain: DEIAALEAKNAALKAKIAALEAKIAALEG

4H3697-AA = target: T39, 4H3697-AA; conditions: mean of both orientations
T39 chain: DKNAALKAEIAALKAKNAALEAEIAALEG

4H745-AA = target: T40, 4H745-AA; conditions: mean of both orientations
T40 chain: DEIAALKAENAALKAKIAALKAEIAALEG

4H570-AA = target: T41, 4H570-AA; conditions: mean of both orientations
T41 chain: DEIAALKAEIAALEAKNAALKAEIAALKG

4H3016-AA = target: T42, 4H3016-AA; conditions: mean of both orientations
T42 chain: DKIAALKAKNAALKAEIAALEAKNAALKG

4H909-AA = target: T43, 4H909-AA; conditions: mean of both orientations
T43 chain: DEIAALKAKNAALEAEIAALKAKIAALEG

4H3753-AA = target: T44, 4H3753-AA; conditions: mean of both orientations
T44 chain: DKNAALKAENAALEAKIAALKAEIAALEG

4H458-AA = target: T45, 4H458-AA; conditions: mean of both orientations
T45 chain: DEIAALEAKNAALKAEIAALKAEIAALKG

4H850-AA = target: T46, 4H850-AA; conditions: mean of both orientations
T46 chain: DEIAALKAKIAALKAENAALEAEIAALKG

B1: 4H390-AA (peptide)
chain: DEIAALEAKNAALEAEIAALEAKIAALKG
Q: Which results are given for B1?
A: interaction score (4H390-AA): 2.23; interaction score (4H3940-AA): -0.115; interaction score (4H775-AA): -0.316; interaction score (4H816-AA): 0.183; interaction score (4H87-AA): -1.41; interaction score (4H510-AA): 1.57

B2: APC4436-AA (peptide)
chain: DENAALEAENAALEAKAAALKAELAAEEG
Q: For B2, which interaction score (APC6108-AA) is on record?
A: Its interaction score is -2.03.

Q: What about the interaction score (APC8191-AA) of the same binder?
A: The interaction score was -2.27.

Q: What about the interaction score (APC8910-AA) of the same binder?
A: Its interaction score is -1.76.

Q: What about the interaction score (APC9319-AA) of the same binder?
A: The interaction score was -1.7.

Q: And the interaction score (APC5383-AA)?
A: Its interaction score is -1.76.

Q: And the interaction score (APC9096-AA)?
A: The interaction score was -1.96.

Q: And the interaction score (APC7099-AA)?
A: Its interaction score is -1.57.

Q: What about the interaction score (APC4436-AA) of the same binder?
A: The interaction score was -2.09.

B3: 4H2438-AA (peptide)
chain: DKIAALEAKNAALEAEIAALEAKIAALKG
Q: How did the interaction score (4H2438-AA) turn out when B3 was run?
A: The interaction score was 1.62.

Q: And the interaction score (4H3130-AA)?
A: The interaction score was -0.561.

Q: What about the interaction score (4H3381-AA) of the same binder?
A: The interaction score was -1.06.

Q: What about the interaction score (4H3009-AA) of the same binder?
A: Its interaction score is 1.88.

Q: What about the interaction score (4H536-AA) of the same binder?
A: Its interaction score is -1.47.

Q: And the interaction score (4H930-AA)?
A: Its interaction score is 0.452.

Q: And the interaction score (4H2649-AA)?
A: Its interaction score is -0.664.

Q: What about the interaction score (4H3590-AA) of the same binder?
A: The interaction score was -0.136.

Q: And the interaction score (4H2865-AA)?
A: The interaction score was -0.236.

Q: And the interaction score (4H3865-AA)?
A: Its interaction score is -1.16.

Q: What about the interaction score (4H2698-AA) of the same binder?
A: Its interaction score is 1.25.

Q: What about the interaction score (4H3410-AA) of the same binder?
A: Its interaction score is 0.0321.

Q: And the interaction score (4H3120-AA)?
A: Its interaction score is -0.892.

Q: And the interaction score (4H310-AA)?
A: Its interaction score is -0.376.

Q: And the interaction score (4H3395-AA)?
A: The interaction score was 0.314.

Q: And the interaction score (4H2725-AA)?
A: Its interaction score is 1.32.

Q: And the interaction score (4H710-AA)?
A: Its interaction score is -0.823.

Q: What about the interaction score (4H891-AA) of the same binder?
A: The interaction score was -1.67.

Q: And the interaction score (4H629-AA)?
A: Its interaction score is -1.42.

Q: What about the interaction score (4H3165-AA) of the same binder?
A: Its interaction score is -1.17.

Q: What about the interaction score (4H797-AA) of the same binder?
A: Its interaction score is -1.67.

Q: And the interaction score (4H94-AA)?
A: The interaction score was 1.28.

Q: What about the interaction score (4H2473-AA) of the same binder?
A: The interaction score was 1.99.

Q: And the interaction score (4H485-AA)?
A: The interaction score was 2.05.

Q: What about the interaction score (4H3697-AA) of the same binder?
A: Its interaction score is -1.23.

Q: What about the interaction score (4H745-AA) of the same binder?
A: The interaction score was 1.6.

Q: And the interaction score (4H570-AA)?
A: Its interaction score is 0.233.

Q: What about the interaction score (4H3016-AA) of the same binder?
A: The interaction score was -0.613.

Q: What about the interaction score (4H909-AA) of the same binder?
A: Its interaction score is 0.42.

Q: What about the interaction score (4H3753-AA) of the same binder?
A: The interaction score was 1.89.

Q: What about the interaction score (4H458-AA) of the same binder?
A: The interaction score was 2.03.

Q: What about the interaction score (4H850-AA) of the same binder?
A: Its interaction score is 0.962.
